The subject of this data set is CSCC[C@H](N)C(=O)O.

Results on one substance are retold here after ChEMBL document CHEMBL1130856, “A new series of cyclic amino acids as inhibitors of S-adenosyl L-methionine synthetase” (Bioorg Med Chem Lett, 1998).

S-adenosylmethionine synthase isoform type-1 (Rattus norvegicus), P13444, sequence (P13444 whole entry, canonical isoform): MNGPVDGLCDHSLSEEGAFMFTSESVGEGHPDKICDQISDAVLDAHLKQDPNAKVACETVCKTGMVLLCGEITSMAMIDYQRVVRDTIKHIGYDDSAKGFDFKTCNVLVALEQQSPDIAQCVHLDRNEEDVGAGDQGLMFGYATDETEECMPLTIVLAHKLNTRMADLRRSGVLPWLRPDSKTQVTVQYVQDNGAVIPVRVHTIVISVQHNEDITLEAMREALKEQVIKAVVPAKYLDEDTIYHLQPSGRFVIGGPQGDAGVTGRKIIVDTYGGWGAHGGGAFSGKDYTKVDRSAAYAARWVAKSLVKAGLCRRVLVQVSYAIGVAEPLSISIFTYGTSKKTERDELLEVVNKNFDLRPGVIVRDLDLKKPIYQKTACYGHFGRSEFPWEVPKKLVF
Description: Compound was evaluated for its inhibitory activity against recombinant S-adenosyl L-Methionine synthetase (alpha-isoform) in rat liver

Broadly, the Km is the concentration of substrate that gives half-maximal velocity. Take “S-adenosylmethionine synthase isoform type-1 (Rattus norvegicus), P13444”: the Km stood at 70 µM.
